Assay results reported in the nanobody polyreactivity screen of Harvey et al. (2022).

Assay: yeast display, Sf9 membrane polyspecificity reagent, FACS + sequencing; frameworks hold sequencing errors
Method in brief: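 After 36–48 hours of galactose induction, yeast (Saccharomyces cerevisiae BJ5465) displaying a synthetic nanobody library were stained at 4 °C for 1 hour with 10% biotinylated, detergent-solubilized Sf9 membrane reagent. Streptavidin microbeads enriched the stained cells before FACS sorting into low and high (top ~1%) gates on anti-HA and streptavidin fluorescence. Each clone's polyreactivity label reflects its gate of origin.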

Row | Sequence | polyreactivity (PSR sort gate)
1 | QLQLVESGGGLVQAGGSLRLSCAASGSIFADYAMGWYRQAPGKEREFVAAITRSGTSTYYADSVKGRFTISRDNAKNTVYFQMNSLKPEDTAGYYCAKTEVLLYLYTLDYWGQGTQVTVSS | low polyreactivity
2 | QLQLVESGGGLVQAGGSLRLSCAASGSIFFGNVMGWYRQAPGKERELVAAINTDGRTYYADSVKGRFTISRDNAKNTVYLQMNSLKPEDTAVYYCAARKGYRYYYWGQGTQVTVSS | high polyreactivity
3 | QLQLVESGGGLVQAGGSLRLSCAASGSIFNDTAMGSYRQAPGKDRELVAAISWNGGSTYYADSVKGRFTISRDNAKNTVYLQMNSLKPQDTAVYYCAVYARYWYLLHYRYGYWGQGTQVTVSS | low polyreactivity
4 | QLQLVESGGGLVQAGGSLRLSCAASGSIFRGYAMGWYRQAPGKERELVAAISWSGGRTYYADSVKGRFTISRDYAKNTVYLQMNSLKPEDTSVFYCNAASLRYSYTLFDCWGQGTQVTVSS | high polyreactivity
5 | QLQLVESGGGLVQAGGSLRLSCAASGSIFRINAMGWYRQEPGKESELVSAISTRSGRTYYADSVKVRFTISRDNSKNTVYLQMNSLKPEDTAVYYCARYRTQASGYGGYDYWGQGTQVTVSS | high polyreactivity
6 | QLQLVESGGGLVQAGGSLRLSCAASGSIFSRYAMGWYIQAPGKEMELVAGITRGGSTNYADSVKGRFTLSRDNAKNTVYLHMNSLKPEDTAVYYCAKASRRFLTLGYDYWGQGTQVTVSS | high polyreactivity
7 | QLQLVESGGGLVQAGGSLRLSCAASGSLFYVYAMGWYRAATGKERELVAAISDDGDTYYADSVKGRFTISRDHEKNTVYLQMNSLKPEDTEVYFCAAEGGANEENSSPEYDYWGLGTQVTVSS | low polyreactivity
8 | QLQLVESGGGLVQAGGSLRLSCAASGSTFDYNAKGWYRQAPGKERELVAAITSTGGNTYYADSVKGRFTIARDNAKNSVYIQMNSLKQEDTAVYYCNKDVARYPYGKCDYWGQGTQVTVSS | low polyreactivity
9 | QLQLVESGGGLVQAGGSLRLSCAASGSTFYTNAMGWYRQAPGKERELVAVITSRGGGTYYADSVKGRFTISRDNAKNTVYLQMNSLKPEDTAVYYCAAYPLVSWGRHGTKGDYWGQGTQVTVSS | low polyreactivity
10 | QLQLVESGGGLVQAGGSLRLSCAASVRIFDVYAMGWYRQAPGKERELVAAITWDGGSTYYADSVKGRFTISRDNAKNTVYLQMNSLKPEDTAVYYCAAEPVYTQRKGYDYWGHGTQVTVSS | low polyreactivity
11 | QLQLVESGGGLVQAGGSLRLSCADSASIFTCYAMGWDRQAPGKESELVARINVSAGITYYADSVMGRFTISRDNAKNPVYLQMNSLNPEDTAVYYCAATGLRRPKHNYWGQGPQVTVSS | low polyreactivity
12 | QLQLVESGGGLVQAGGSLRLSCAPSGRIFAPYAMGWYIPAPVKERELVAAIRLSGGSTYYADSVKGRFTISRDNAKNTVYLKMNSLKPEDTEVYYCAARYPGVARFYYWGQATQVTVSS | high polyreactivity
13 | QLQLVESGGGLVQAGGSLRLTCAASGSIFNDNAMGWYRPAPVKERELVAPINSDGSTYYADSVKGRFTISRDNAKNTVYLQMNSLKPEDTAVYYCNADTLLDNFTWDADGYDYWGQGTHVTVSS | low polyreactivity
14 | QLQLVESGGRIVQAGGSLRLSCAASGITIRYYAMGWYRQAPGKERELVAAITRSGSTTYADSVKGRFTISRDNAKNTVYFQMNSLKPEDTAVYYCAVDFYYLTGGVDYWGQGTQVTVSS | low polyreactivity
15 | QLQLVESGGVLVQAGGSLRLSCAASGLTFAYYAMGSYRQAPGKERELVAAISWNGGRTYYAYSVKGRFTISRDNAKNTVYLQMNSLKPEDTAVYYCATRFYRPRDGLYDYWGQGTQVTVSS | high polyreactivity
16 | QLQLVESGPGLVQAGGSLRLSCAPSGSTFNRNAMGCYSQAPGKERELVAVISSGGSTYYADSVKGRFTISRDIAKNTVYLQMNSLKPEDTAVYYCAAGDPQKEDYWGQGTQVTVSS | low polyreactivity
17 | QLQLVESLGGLFQAGGILRLSCAASGRTLRGYGNGWYRQAPAKEREFVAAISTRGGRTYYADSVKGRFTISRDNAKNTVYLQMKILKPEDTAVYYCAAAYEPGDYDSWGQGTQVTVSS | low polyreactivity
18 | QLQLVESVGGLVHAGGSLRLSCAASGSTFVLYAMGWYRQAPGKERELVATITTSGARTHYADSVKGRFTISRDNAKNTVYLQMNRLKPEDTAVYNCAAESYWTGDDYWGQGTQVTVSS | low polyreactivity
19 | QLQLVESVGVLVQAGGSLRLSCAASGFIFDGYAMGWYRQAPGKERELVAAIDSGGDRTYYADSVKGRFTISRDNAKNTVYLQMNSLKPEDTAVYYCARTFRTYAPRPYQGDYWGQGTQVTVSS | low polyreactivity
20 | QLQLVETGGGLVQAGASLRLSCAASGSIFVPYAMGWYIQAPGKERELVAAISRGGDTNYADSVKGRFTISRDNAKNTVYLQMISLKPEDTAVYYCNRARHLYSRWHGGYYYWGQGTQVNVSS | low polyreactivity
21 | QLQLVKSWGGLVQAGGSLRLSSAASGLTFELYDMGWYRQAPGKERELVAAIDWSATRTYYADSVKGRFTISRDNAKNTVYLQMNSLKPEDTEVYYCNAEAVYEYWIYDYWGQGTQVTVSS | high polyreactivity
22 | QRQLVESGGGLVQAGGSLRLSCAASGFIFDSNAMGRYRQEPGKERELVAAFAARGGSTYYADSVKGRFTISRDYAKHTLYLQMNSLKPEETAVYNCNAVYIVGGYWGQGTQVTVSS | high polyreactivity

Row | Sequence | polyreactivity (PSR sort gate)
23 | QRQLVESGGGLVQAGGSLRLSCAASGIIFQGYAMGWYRQAPGKERELVAAISHHADSTYADSVKGRFTISRDNAKNPVYLQMNSLKPEDTAVYYCNADTPVRSDYWGQGTQVTVSS | low polyreactivity
24 | QVEHVESGGGLVQAGGILRLSCAASGSTFYGYAMGWYRQARGKERELVAAITSSGGSTYYADSVKGRFTISRDNAKNSVYLQMNSLKPEDTADYYCNAKRAPWGTLYNYWGQGSQVTVSS | high polyreactivity
25 | QVEIVESGGGLVQAGGSLRLSCAASGSIFRWNAMGWYRQAPGKERELVAAISKRGTNTYYADSVKCRFTISRDNAKNTVYLQMNSLKPEDTAVYYCNAQGHRQNGLGDYWGQGTQVTVSS | high polyreactivity
26 | QVELQVSGGGLVRAGGSLRLSCAASGNIFDADIMGWYRQAPGKERELVASITGGGSTSYAESAKGRFTISRDNAKNAVYLQMNSLKPEDTAVYYCNAYFIYEGGWYYKAQYDYWGQGTQVTVSS | low polyreactivity
27 | QVELVESGGGLVQAGGSLRLICAASGFTYTWNAMGWYRQAPGKERELVAGITRGGSTNYADSVKGRFTISRDNAKNTVYLQINSLKPEDTAVYYCNVSFYFHHAGYDFWGQGTQVTVSS | low polyreactivity
28 | QVELVESGGGLVQAGGSLRLSCAASGCIFTFYAMGWYRTAPGKARELVAAISSSGTSTYYADSVKGRFTISRDNAKNTVYLQMNSLKPEDTAVYYCAAGTAYSRYGYWGQGTQVTVSS | high polyreactivity
29 | QVELVESGGGLVQAGGSLRLSCAASGFTFHSNVMGWYRQAPGKERELVAAISNGGGSTYYADSVKGRFTISRDNAKNTVYLQMNSLKPEDTAVYYCDKRTYPGFGYWGQGTQVTVSS | high polyreactivity
30 | QVELVESGGGLVQAGGSLRLSCAASGFTFVSYAMGWYRQAPGKEREFVATISKRGGSTYYADSVKGRFTISRDNAKNTVYLQMNSLKPEDTAVYYCAVRYPYYSYRAKLGYCGQGTQVTVSS | high polyreactivity
31 | QVELVESGGGLVQAGGSLRLSCAASGSTFDPNAMGWYRQAPGKERELVASITSRGGSTYYADSVKGRFTISRDIAKNTVYLQMNSLKPEDTADYYCAAVGGATYSWNGYSWYPWHNYWGQGTQVTVSS | low polyreactivity
32 | QVELVESGGGLVQAGGSLRLSCAASGSTFYRYAMGWYRQAPGKEREFVARIDWSDGSTNYADSVKGRFTISRDTAKNTVYLQMNSLKPEDTAVYYCAADTYYDTYDGEYEYWGQGTQVTVSS | low polyreactivity
33 | QVELVESGGGVVQAGGSLRLSCAASGYIFRAYAMGWYRQAPGKERELVAAISSRGGSKYYADSVKGRFTSSRDNAKNTVYLQMNSLIPEDTAVYYCAAAYRKPYIGYGYWGQGTQGTVSS | high polyreactivity
34 | QVELVYSGGGLVQAGGSLRLSCPASGSTFWYYAMGWSRQPPGKERELVAAINSGGSTFYADSVKGRFTISRDNAKNTVYLQMNSLKPEDTAVYYCAKRSYDYRRYYWGQGTQVTVSS | high polyreactivity
35 | QVHHVESGGVLVQAGRILRVSCAASGSTFPRNAMGWYRHAPGKERELDAAITSRGGRTYYADSVKGRFTISRDNAKNTVYLQMISLKPEDTAVYYCARVGGIGSGRTGYGYWGQGSQVTVSS | high polyreactivity
36 | QVHLAESGGGLVQAGGSLRLSCASSGIIFYFYAMGWYRQAPGKERELVAAISGTGGRTYYADSVKGRFTISRDNAKNTVYLQMNSLKPEDTAVYYCNADDTPVPSIRFDYWGQGTQVTVSS | low polyreactivity
37 | QVHLEESGGGLVQAGGSLRLSCAASGFIFNAYAMGWYRQAPGKERELVAAISSSGGRTYYADSVKGRFTISRDNAKNTVYLQMNSLKPEVTAVYYCNTYRYYQYYRSMDYWGQGTQVTVSS | high polyreactivity
38 | QVHLEESGGGLVQAGGSLRLSCAASGRIPFYAMGWYRQAPGKEREFVAAIRFSGGSTFYADSVKGRFTISRDNAKNTVYLQMNSLTPEDTAVYYCAAYLYYPFYWWRDYCGQGTQVTVSS | high polyreactivity
39 | QVHLLESGGALVQAGGRLRLSCAASGRIFKTYAMGWYRQAPGKELEFVAAITASGGRTYYADSVKGRFTISRDNAKNTVYLQMNSLIPEDTAGYYCNARLVYYSYEEMDYWGQGTQVTVSS | low polyreactivity
40 | QVHLQESGAGLEQAGGSLRLSCAASGYISDIGTMGCYRQAPGKEREFVATIVVGSTTNYADSVKGRFTISRDNAKNTLYLQPESGRYRGVLLRGWLLAVGKFTYWGQGTQETVSS | low polyreactivity
41 | QVHLQESGGGLVQAGGSLRLSCAASGYITLAQTIGWYRQAPGQEREFVASIALGSSTYYTDSVKGSFTISRDNAKTTVYLQMNSLKPEDTAVYYCAARVGSSYAHDYWGQGTQVTVSS | low polyreactivity
42 | QVHLQGSGGGLVQAGGSLRLSCAASGYIFQNDPMGWNLQAPGKERELVAGIDNGTSTNYADSVNGRFTISRDNAKNTVYLQMNSLKPEDTAVYYCSAAGQADDTLGYWGQGTEVTVSS | low polyreactivity
43 | QVHLVDSGGGLVQAGGSLGLNCAASGRTLRYNAMGWYRQATGIERELVAAINWNGGSTYYADSVKGRFTISRETAMYTVYLQMNRLKPEDTAVYFCNDDFYHRYDWGQGTQVTVSS | high polyreactivity
